# B1: Ribonucleoside-diphosphate reductase large subunit (Human herpesvirus 2 (strain HG52) (HHV-2)), P89462 (parent)
# chain: MANRPAASALAGARSPSERQEPREPEVAPPGGDHVFCRKVSGVMVLSSDPPGPAAYRISDSSFVQCGSNCSMIIDGDVARGHLRDLEGATSTGAFVAISNVAAGGDGRTAVVALGGTSGPSATTSVGTQTSGEFLHGNPRTPEPQGPQAVPPPPPPPFPWGHECCARRDARGGAEKDVGAAESWSDGPSSDSETEDSDSSDEDTGSETLSRSSSIWAAGATDDDDSDSDSRSDDSVQPDVVVRRRWSDGPAPVAFPKPRRPGDSPGNPGLGAGTGPGSATDPRASADSDSAAHAAAPQADVAPVLDSQPTVGTDPGYPVPLELTPENAEAVARFLGDAVDREPALMLEYFCRCAREESKRVPPRTFGSAPRLTEDDFGLLNYALAEMRRLCLDLPPVPPNAYTPYHLREYATRLVNGFKPLVRRSARLYRILGVLVHLRIRTREASFEEWMRSKEVDLDFGLTERLREHEAQLMILAQALNPYDCLIHSTPNTLVERGLQSALKYEEFYLKRFGGHYMESVFQMYTRIAGFLACRATRGMRHIALGRQGSWWEMFKFFFHRLYDHQIVPSTPAMLNLGTRNYYTSSCYLVNPQATTNQATLRAITGNVSAILARNGGIGLCMQAFNDASPGTASIMPALKVLDSLVAAHNKQSTRPTGACVYLEPWHSDVRAVLRMKGVLAGEEAQRCDNIFSALWMPDLFFKRLIRHLDGEKNVTWSLFDRDTSMSLADFHGEEFEKLYEHLEAMGFGETIPIQDLAYAIVRSAATTGSPFIMFKDAVNRHYIYDTQGAAIAGSNLCTEIVHPASKRSSGVCNLGSVNLARCVSRQTFDFGRLRDAVQACVLMVNIMIDSTLQPTPQCTRGNDNLRSMGIGMQGLHTACLKMGLDLESAEFRDLNTHIAEVMLLAAMKTSNALCVRGARPFSHFKRSMYRAGRFHWERFSNASPRYEGEWEMLRQSMMKHGLRNSQFIALMPTAASAQISDVSEGFAPLFTNLFSKVTRDGETLRPNTLLLKELERTFGGKRLLDAMDGLEAKQWSVAQALPCLDPAHPLRRFKTAFDYDQELLIDLCADRAPYVDHSQSMTLYVTEKADGTLPASTLVRLLVHAYKRGLKTGMYYCKVRKATNSGVFAGDDNIVCTSCAL
# Variants of: B1
# Details: with ripk3_human RIPK3, Q9Y572
# Chain of ripk3_human RIPK3, Q9Y572 (Q9Y572 whole entry, looked up): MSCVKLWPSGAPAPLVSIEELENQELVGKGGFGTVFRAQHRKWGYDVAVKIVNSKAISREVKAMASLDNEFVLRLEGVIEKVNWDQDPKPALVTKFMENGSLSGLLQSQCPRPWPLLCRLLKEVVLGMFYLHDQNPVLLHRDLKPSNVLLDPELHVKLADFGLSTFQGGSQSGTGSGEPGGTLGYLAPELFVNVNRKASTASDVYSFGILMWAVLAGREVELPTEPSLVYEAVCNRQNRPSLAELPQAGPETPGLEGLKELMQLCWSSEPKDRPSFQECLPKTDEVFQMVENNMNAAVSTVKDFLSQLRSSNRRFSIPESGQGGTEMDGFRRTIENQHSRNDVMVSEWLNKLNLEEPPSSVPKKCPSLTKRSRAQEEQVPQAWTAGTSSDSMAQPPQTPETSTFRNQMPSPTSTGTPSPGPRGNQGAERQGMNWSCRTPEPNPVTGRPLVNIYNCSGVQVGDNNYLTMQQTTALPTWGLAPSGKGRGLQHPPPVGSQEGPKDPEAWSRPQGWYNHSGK
row,Variant,effect of a mutation on the interaction
1,V64A;Q65A;C66A;G67A,decreasing interaction strength
